Measurements taken from patent US20250313612A1 (Adimab, published 2025).

Columns and labels:
[1] = molecular target: RSV F protein of recombinant mKate-RSV, subtype A (strain A2) (Respiratory syncytial virus subtype A …, UniProt P03420 26-574); assay: cell-based or functional assay
[2] = molecular target: RSV F protein of recombinant mKate-RSV, subtype B (18537) (Respiratory syncytial virus subtype B …, UniProt P13843 26-574); assay: cell-based or functional assay
[3] = molecular target: T1, RSV F ectodomain stabilized in the postfusion conformation (F ΔFP), subtype A (Respiratory syncytial virus subtype A, UniProt P03420 26-109; P03420 147-524); assay: BLI, IgG on AHQ sensor, 100 nM antigen
T1 construct: extracellular domain; trimer; furin-cleaved; also called Postfusion subtype A

[4] = molecular target: T2, RSV F ectodomain stabilized in the postfusion conformation (F ΔFP), subtype B (Respiratory syncytial virus subtype B, UniProt P13843 26-109; P13843 147-524); assay: BLI, IgG on AHQ sensor, 100 nM antigen
T2 construct: extracellular domain; trimer; also called Postfusion subtype B; postF subtype B

Row | Binder | Neut IC50 subtype A [1] [µg/mL] | Neut IC50 subtype B [2] [µg/mL] | Kd [3] [nM] | Kd [4] [nM]
1 | ADI-14513 (antibody, V domains shown, full-length IgG (yeast-expressed); also called Antibody Number 74; Ab# 74) VH: QVQLVQSGSEVKRPGSSVKVSCKASGVALTTVAVNWVRQVPGQGPEWIGGILIGFGKVRQAQKFENRVTFTADASRNTAYMELSGLRSEDTAVYYCAIIDPQDCTRASCFWVNWLAPWGHGTLVTVSS VL: DIRVTQSPGTLTLSPGERASLSCRASESILNGNLAWYQQKPGQAPRLLIYAASSRATDIPDRFSGSGSGTDFTLTISRLEPQDFAVYYCQQYGSAPITFGQGTRLEIK | 4.81 | 2.2 | 1.21 | 0.962
2 | ADI-14445 (antibody, V domains shown, full-length IgG (yeast-expressed); also called Antibody Number 8; Ab# 8) VH: EVQLLESGAVMKRPGSSVRVSCRASGVTLTTVSVNWVRQVPGQGPEWIGGILIGFGKVRQAQKFENRVTLTADASRNTAYMELSGLTSDDTAVYYCAIIDPQDCTRASCFWVNWLDPWGQGTLVTVSS VL: DIRMTQSPGTLTLSPGERATLSCRASQSILSGNLAWYQQKPGQAPRLLISAASTRATDIPDRFSGSGSGTDFTLTITRLEPQDFAVYYCQQYDSAPITFGQGTRLEIK | > 10 | 1.21 | 4.92 | 15.2
3 | ADI-14450 (antibody, V domains shown, full-length IgG (yeast-expressed); also called Antibody Number 13; Ab# 13) VH: QVQLVQSGGGLVKPGGSRRLACAASGFIFRNAWMSWVRQAPGKGLEWVGRIKRTSEGGSVDYATPVQGRFSISRDDSRNTLYLQMHSLAPDDTAVYYCSTGPPYSYFDSTGYSVVDYWGQGTLVTVSS VL: QSVLTQPPSASGTPGQRVTISCSASSSNIGDNYFYWYQQLPGKAPTLLMYGSDQRSSGVPDRFSGSQSGTSASLAISGLRSEDEAAYYCAAWDDSLSGPVFGGGTQLTVL | 0.195 | 0.315 | 0.227 | 0.142
4 | ADI-14523 (antibody, V domains shown, full-length IgG (yeast-expressed); also called Antibody Number 83; Ab# 83) VH: EVQLVESGGGLVKPGGSLRLSCAASGFIFRNAWMSWVRQAPGKGLEWVGRIKRTSEGGSVDYATPVQGRFSISRDDSRNTLYLQMNSLETDDTAVYYCSTGPPYSYFDSSGYSVVDYWGQGTLVTVSS VL: QSVLTQPPSASGTPGQRVTISCSASSSNIGDNYFYWYQQLPGKAPTLLMYGSDQRSSGVPDRFSGSQSGTSASLAISGLRSEDEADYYCAAWDDSLSGPVFGGGTKLTVL | 0.239 | 0.151 | 0.192 | 0.131
5 | ADI-14524 (antibody, V domains shown, full-length IgG (yeast-expressed); also called Antibody Number 84; Ab# 84) VH: EVQLVESGGGLVQPGGSLRLSCAASGFSFSDYSMNWVRQAPGKGLEWVSYITPSSRNKFYADSVRGRFTISRDNAENSLYLQMNSLRVEDTAVYYCVRSLHWGAAIERWDVWGQGTTVTVSS VL: EIVLTQSPGTLSLSPGERATLSCRASQSISSSFFAWYQQTPGQAPRLLMYATSSRATGIPDRFSGSGSGTDFTLTISRVEPEDFAVYYCQQSGSSPYTFGQGTKVEIK | 6.05 | 6 | 0.826 | 0.771
6 | ADI-14446 (antibody, V domains shown, full-length IgG (yeast-expressed); also called Antibody Number 9; Ab# 9) VH: QVQLVQSGAEVKKPGSSVKVSCEASGDTFTSYAVIWVRQTPGQGLEFMGSIIPIFQTINYAPKFQGRVTLSADGSTSTVFMELRNLRSEDTAIYFCATKRYCTSPSCHGLWYFNLWGRGTMVTVSS VL: ETTLTQSPISLSVTPGEPASISCRSSKSLLDSDDGNTYLDWYLQKPGQSPQILIYMLSYRASGVPDRFSGSGSGTDFTLKISRVEAEDVGVYYCMQRIEYPYTFGQGTKVEIK | 0.091 | 0.187 | 0.213 | 0.137
7 | ADI-14447 (antibody, V domains shown, full-length IgG (yeast-expressed); also called Antibody Number 10; Ab# 10) VH: QVQLVQSGAEMKKPGSSVTVSCKASGVPFTSYTYSWVRQAPGQGLEWMGRVLPVIGSAKYPQKFQGTVTITADKSTSTIYLQLSSLRPEDTAIYFCAGSLLAGYDREFDSWGQGTLVTVSS VL: DIQMTQSPSSLSASVGDRITITCRASQGISNWLAWYQQKPGKAPKSLIYEASTLQSGVSSRFSGSGSGTHFTLTIASLQPEDFATYYCQQYYIYPLTFGGGTKLEIK | 0.143 | 0.372 | 0.339 | 0.271
8 | ADI-14449 (antibody, V domains shown, full-length IgG (yeast-expressed); also called Antibody Number 12; Ab# 12) VH: EVQLVESGGDLVKPGGSLRLSCEGSGFIFPNAWMSWVRQAPGKGLEWVGRIKSNTDGGTTDYGAPVKGRFTISRDDSTNTMYLHMNSLKTEDTAVYFCSTGPPYKYFDETGYSVVDYWGQGTLVTVSS VL: SYELTQPPSASGTPGQRVIISCSGSTSNSGYNYFYWYQQRPGTAPKLLIYGSDQRPSGVPDRFSGSQSGPSASLAISGLRSEDEAHYYCAAWDDNLSGPVFGGGTKLTVL | 0.193 | 0.182 | 0.204 | 0.462
9 | ADI-14452 (antibody, V domains shown, full-length IgG (yeast-expressed); also called Antibody Number 15; Ab# 15) VH: QVQLVQSGAEVKKPGSSVKVSCEASGDTFTSYAVIWVRQAPGQGLEWMGSIIPIFQTINYAPKFQGRVTLSADGSTRTVYMELGSLRSEDTAIYFCATKRYCTSPSCHGLWYFNLWGRGTLVTVSS VL: DIVMTQSPLSLPVTPGEPASISCRSSKSLLDSDDGNTYLDWYLQKPGQSPQILIYMLSHRASGVPDRFSGSGSGTDFTLKISRVEAEDVGVYYCMQRVEYPYSFGQGTKVEIK | 0.076 | 0.157 | 0.217 | 0.139
10 | ADI-14439 (antibody, V domains shown, full-length IgG (yeast-expressed); also called Antibody Number 2; Ab# 2) VH: QVQLVQSGAEVKKPGSSVRVSCRASGVTLTTVAVNWVRQVPGQGPEWIGGILVGLGKVRLAQKFENRATLRADTSSNTAYMELSGLRFEDTAVYYCAIIDPQDCTAASCFWVNWLDPWGQGTLVTVSS VL: EIVLTQSPGTLTLSPGETATLSCRASQSVLSGYLAWYQQKPGQAPRLLIYAASTRATDIPARFTGSGSATDFTLTISRLEPQDFAVYYCQQYGSAPITFGQGTRLEIK | > 10 | 4.12 | 5.16 | 16.2
11 | ADI-14453 (antibody, V domains shown, full-length IgG (yeast-expressed); also called Antibody Number 16; Ab# 16) VH: QITLKESGPTVVKPTQTLTLTCTFSGFSLNTRGMGVAWIRQPPGGALEWLALVDWDDDKRYSPSLRSRLTITKDTSKNQVLFTMTTMDPADTATYYCAHIGLYDRGGYYLFYFDFWGQGTLVTVSS VL: DIVLTQSPSSLSASVGDRVTITCRASQSIASYVNWFQQKPGKAPVLLMFASSILQSGVPPRFRGSGSGTDFTLTITSLQPEDFATYYCQHTYTTPYIFGRGTKVEIK | > 10 | > 10 | 0.261 | 0.228
12 | ADI-14454 (antibody, V domains shown, full-length IgG (yeast-expressed); also called Antibody Number 17; Ab# 17) VH: QVQLVQSGPTLVKPTQTLTLTCTFSGFSLSTRGVGVGWIRQPPGKALECLGFTYWDGDQFHSPSLKNRLTITKDTSKNQVVLRMTNMDPVDTATYFCVHSDLYDSGGYYLYYFDYWGQGTLVTVSS VL: DIQMTQSPSSLSASVGDRVTITCRASQTIASYLNWYQQRPGEAPKLLIYAASSLQSGVSSRFSGRGSGTDFTLTINILQPEDLATYFCQQAYSAPYTFGQGTKVEIK | 0.23 | 2.54 | 0.297 | 0.483
13 | ADI-14457 (antibody, V domains shown, full-length IgG (yeast-expressed); also called Antibody Number 20; Ab# 20) VH: QVTLKESGPALVRPKQTLTLTCSFSGFSLDTQRTGVNWIRQSPGKALEWLARIDWDGNIYSSTSVRTKLSISKGTSKNQVVLTMTDVDPVDTATYYCARTLYYTSGGYYLNLFDYWGQGTLVTVSS VL: EIVMTQSPPSLSASVGDRVTITCRASQTIPSYVNWYQQISGKAPRLLIYAASLLQSGVPSRFSGSGSGTEFSLTISGLRPEDFGTYYCQQSYSSTPTFGQGTKVEIK | 0.2 | 0.251 | 0.38 | 0.461
14 | ADI-14484 (antibody, V domains shown, full-length IgG (yeast-expressed); also called Antibody Number 45; Ab# 45) VH: QVTLKESGPALVRPKQTLTLTCSFSGFSLDTQRTGVNWIRQSPGKALEWLARIDWDGNIYSSTSVRTKLSISKGTSKNQVVLTMTDVDPVDTATYYCARTLYYTSGGYYLNLFDYWGQGTLVTVSS VL: EIVMTQSPPSLSASVGDRVTITCRASQTIPSYVNWYQQISGKAPRLLIYAASLLQSGVPSRFSGSGSGTEFSLTISGLRPEDFGTYYCQQSYSSTPTFGQGTRLEIK | 0.448 | 0.169 | 0.389 | 0.394
15 | ADI-14458 (antibody, V domains shown, full-length IgG (yeast-expressed); also called Antibody Number 21; Ab# 21) VH: QVQLVESGGGLVKPGGSLRLSCAASGFIFSNAWMSWVRQSPGKGLEWVGRIKTKTEGATTDHAAPLKGRFTISRDDSRNTLYLQMDSLTTEDTAVYFCTTGPPYSYFDSTGYSIVDYWGQGTLVTVSS VL: SYELTQPPAASGTPGQRVTISCSGSSSNIGSEYVLWYQQVPGTAPKLLIYNSHQRPSGVPDRISGSRSGTSASLAISGLRSEDEAHYYCASWDDSLSGPVFGGGTQLTVL | 0.161 | 0.104 | 0.196 | 0.126
16 | ADI-14459 (antibody, V domains shown, full-length IgG (yeast-expressed); also called Antibody Number 22; Ab# 22) VH: QVQLVQSGGGLVKPGGSLRLSCAASGFTFSNAWMSWVRQAPGKGLDWVGRIKTKADGGTRDYAAPVKGRFTISRDDSENTLYLQMTSLKTEDTGVYYCSTGPPYKYHDSTGYSVVDYWGQGTLVTVSS VL: SYELTQPPSASGTPGQRVTISCSGGSSNIGSDYVYWYQQLPGTAPKLLIYGSSQRPSGVPDRFSGSQSGTSASLAISGLRSEDEADYYCAMWDDSLNGPVFGGGTKLTVL | 0.396 | 0.753 | 0.264 | 0.183
17 | ADI-14460 (antibody, V domains shown, full-length IgG (yeast-expressed); also called Antibody Number 23; Ab# 23) VH: QVQLQQWGAGLLKPSETLSLSCTVSGGVFGNYFWSWVRQAPGKGLEWIGEINQIGTTNYSPSASLKSRVTISVDPSRNQFSLSLRSVTAADTARYYCTRSETSDYFDSSGYAFHIWGEGTMVTVSS VL: LPVLTQPASVSGSPGQSITISCSGISSDGGRYNYVSWYQQHPGKAPKLLIYDDSNWPLGVSHRFSGSKSGNTASLTISGLRAEDEADYYCGSYTDTNRLFGGGTQLTVL | 0.102 | 0.239 | 2.86 | 2.56
